The target in one data set is T1, module 5+TE (Saccharopolyspora erythraea, UniProt Q03133).
T1 construct: a single module of the DEBS PKS fused to the thioesterase (TE) termination region of module 6; thioesterase (TE) domain of DEBS (end of the same DEBS3 polypeptide); made in house; host or cells: E. coli BL21(DE3) co-expressing B. subtilis sfp
The note with it: diffusive loading, shown earlier; cited from earlier work.

In data set [1] the test system is (5)M2+TE, (5)M5+TE, and (5)M6+TE. The note with it: Wu et al. 2000; cited from earlier work.
The target of data set [2] is T2, (5)M3+TE (Saccharopolyspora erythraea, UniProt Q03132+Q03133).
T2 construct: (5)M3+TE: module 3 with N-terminal linker from module 5; N-terminal interpolypeptide linker of DEBS module 5 (start of DEBS3, Q03133); His6 (C); made in house; host or cells: E. coli BL21(DE3) co-expressing B. subtilis sfp
To be noted: previously shown; cited from earlier work.

In a further data set the target is T3, (3)M3+TE (Saccharopolyspora erythraea, UniProt Q03132+Q03133).
T3 construct: encodes module 3 of DEBS (M3) with its own N-terminal linker and with the thioesterase fused to the C-terminus; natural N-terminal interpolypeptide linker of module 3 (start of DEBS2, ahead of the Module 3 feature); His6 (C); made in house; host or cells: E. coli BL21(DE3) co-expressing B. subtilis sfp
The note with it: previously shown; cited from earlier work.

Data set [3] concerns the target T4, M3+TE (Saccharopolyspora erythraea, UniProt Q03132+Q03133).
T4 construct: encodes module 3 of DEBS (M3) with its own N-terminal linker and with the thioesterase fused to the C-terminus; natural N-terminal interpolypeptide linker of module 3 (start of DEBS2, ahead of the Module 3 feature); His6 (C); made in house; host or cells: E. coli BL21(DE3) co-expressing B. subtilis sfp
The note with it: cited from earlier work.

Data set [4] is described as follows: Cell-free synthesis of triketides from diketide thioester by single module constructs. The note with it: purified protein, after 30 minutes. It is filed as biochemical. The protocol: (§1) A cell-free system, tested for the ability to convert the cysteamine thioester of 2S,3R-2-methyl-3-hydroxypentanoic acid (compound 2 in FIG. 2), consisted of 0.5-10 mM concentration of the thioester, 2.5 mM ^14C-labeled methylmalonyl CoA and 100 pmoles of purified protein prepared in Example 1 in a 100 μl reaction. In some cases, 1 mM of NADPH was added; this was done in assay mixtures containing (M2+TE), (M5+TE) and (M6+TE) proteins. The protein was, in each case, a single module of the DEBS PKS fused to the thioesterase (TE) termination region of module 6.
(§2) The reaction mixtures were quenched and extracted by ethyl acetate and separated by thin-layer chromatography (TLC) to discern the formation of the triketide ketolactone 3 and triketide lactone 4 (both shown in FIG. 2) after 30 minutes.

A short description of data set [5]: Kinetic constants kcat and KM for converting diketide to triketide (cell-free system). The data set is classed as biochemical. On the procedure:
as §1, §2
The various constructs which are successful in converting diketide to triketide were then evaluated for the kinetic constants kcat and KM. […] This is evidently due to the absence of beta-carbonyl modifying enzymes in module 3 as verified by the fact that removal of NADPH, (which is required for the activity of such modules) from the reaction mixture of (N-ERL-M6+TE) also results in a lowering of the kcat.

Data set [6] is described as follows: Kinetic analysis of individual modules with natural diketide (NDK). The data set is classed as biochemical. The note with it: NDK as substrate, 30° C., saturating NADPH and methylmalonyl-CoA. On the procedure: In Vitro Polyketide Production. Assays of individual modules contained 1.0 μM protein, 1-10 mM N-acetylcysteamine thioester of the “natural” (2S,3R)-2-methyl-3-hydroxypentanoic acid diketide (NDK) (1), 4 mM NADPH, 440 mM sodium phosphate, 1 mM EDTA, 2.5 mM dithiothreitol (DTT), and 20% w/v glycerol, pH 7.2, in 80 μL. Reactions with M2 or M2(4) included 0.3 mM ^14C-methylmalonyl-CoA (specific activity adjusted to 10.4 mCi/mmol), and those with M3+TE or (5)M3+TE included 0.5 mM ^14C-methylmalonyl-CoA (specific activity reduced to 1.1 mCi/mmol). [M2(4) refers to a derivative of M2 in which the C-terminal linker has been replaced with its counterpart from module 4, whereas (5)M3 refers to a derivative of M3 in which the N-terminal linker has been replaced with its counterpart from module 5 (see FIG. 4).] […] Product formation was quantified by comparison with standards of the labeled methylmalonyl-CoA. […]
Kinetic Analysis. For individual modules, the steady-state turnover number was determined from the time course of triketide formation, normalized to the concentration of protein. The dependence of the rate on substrate concentration was measured by varying the concentration of NDK while maintaining saturating levels of NADPH and methylmalonyl-CoA.

The target in data set [7] is T4, M3+TE. Description: Tetraketide lactone 2 formation, coincubation of donor module with M3+TE. The data set is classed as biochemical. The protocol:
(§3) Assays of M2 and M3+TE contained 1.0 μM M2 and 0.4-4 μM M3+TE, 7 mM NDK, 0.5 mM ^14C-methylmalonyl-CoA (specific activity reduced to 3.4 mCi/mmol), 4 mM NADPH, 440 mM sodium phosphate, 1 mM EDTA, 2.5 mM DTT, and 20% w/v glycerol, pH 7.2, in 70 μL. Assays of M2(4) and (5)M3+TE were identical, except they contained 0.5 μM M2(4), 0.5-5 μM (5)M3+TE, and 0.4 mM ^14C-methylmalonyl-CoA (specific activity reduced to 6.2 mCi/mmol). The concentration of M2(4) was limiting in order to facilitate its saturation with (5)M3+TE. The reactions were prewarmed at 30° C. and initiated by the addition of the methylmalonyl-CoA. As described above, 20 μL aliquots were removed at various time points and processed. Extracts loaded onto TLC plates were separated using either 80% ethyl acetate in hexanes or 5% methanol in dichloromethane, both of which allowed identification of the tetraketide lactone 2 and the triketide lactones 3 and 4.
(§4) For tetraketide formation, the rate of production of tetraketide was recorded for varying concentrations of M3+TE [or (5)M3+TE] at a fixed concentration of M2 [or M2(4)] and saturating concentrations of substrates. By fitting the rate dependence of tetraketide to a saturation curve, the maximal velocity (νmax) of tetraketide production was determined, and was assumed to represent the case where every M2 homodimer was productively associated with an M3+TE homodimer. Thus, the affinity of this protein-protein interaction could be calculated from the rate of tetraketide formation, as represented in Equation 1 ν=kcat[M2-M3] (1) ([M2], [M3], and [M2-M3] refer to the concentrations of M2, unbound M3+TE, and the M2/M3+TE complex, respectively). Since [M2-M3] is related to the KD of M2 and M3+TE as shown in Equation 2, [formula] which can be rearranged to yield Equation 3, [formula] where [M2]0=total concentration of M2, the velocity of tetraketide production can be defined relative to the KD: [formula] where ν=kcat[M2-M3] and νmax=kcat[M2]0. […]

Data set [8] deals with T2, (5)M3+TE. Description: Tetraketide lactone 2 formation, coincubation of donor module with (5)M3+TE. It is filed as biochemical. The protocol: as §3, §4

Where “and” joins values, the source holds several entries; their conditions need not be identical. Equal values may be shown once. Read-outs that look alike come from different tables or passages of the source.

`CCC(O)C(C)C(=O)SCCNC(C)=O` (stereo not drawn) [2b]: on module 5+TE, the “kcat (elongation rate constant), NAC thioester substrate” value is 0.00033 s⁻¹. For the same compound, the “incorporation of NAC thioester (qualitative)” value (from here on “incorporation of NAC thioester”) in [1] was “substrates for the three modules”; on (5)M3+TE [2] it was “readily incorporated and elongated”; at (3)M3+TE it was “readily incorporated and elongated”.
On to `CCC(O)C(C)C(=O)SCCNC(C)=O` (stereo not drawn) [2c], for which the “incorporation of NAC thioester” value in data set [1] is recorded as “no turnover”.
For the compound `CCC(O)C(C)C(=O)SCCNC(C)=O` (stereo not drawn) [2d], in data set [1], the “incorporation of NAC thioester” value is recorded as “no turnover”.
One may read the Kd as a measure of binding affinity in units of concentration. As to “DEBS1: first protein of 6-deoxyerythronolide B synthase, loading module and extender modules 1 and 2”, the dissociation constant (Kd) with M3+TE [3] (Gokhale et al. 1999, read-out: KD, previously reported value) is 2.6 µM. Moreover, the “rate of formation of the same tetraketide, earlier measurement” value with M3+TE [3] (Pieper et al. 1997) is 0.23 min^−.
The Km is the substrate concentration at which the rate is half of its maximum. On to “ERL − M2 + TE: module 2+TE carrying the upstream 39 amino acids (N-ERL) from module 5”, for which, in data set [4], the “Triketide Formed” value is on record as “Yes”. The “Triketide Formed” value in data set [4] (listed as (N-ERL-M2+TE)) is “able to produce the triketide product”. In addition, in data set [5] (diketide to triketide), the Km came out at 4.6 ± 0.4 mM and the “kcat × 100” value is recorded as 8 ± 0.6 min^−1.
Turning to “ERL − M6 + TE: module 6+TE carrying the upstream 39 amino acids (N-ERL) from module 5”, the “Triketide Formed” value in data set [4] was “Yes”; in data set [4] (listed as (N-ERL-M6+TE)), “able to produce the triketide product”. Besides, the Km in data set [5] ((− NADPH)) was 4.1 ± 0.4 mM; in data set [5] (diketide to triketide), 4.3 ± 0.4 mM. The figures for the “kcat × 100” value in data set [5] ((− NADPH)) and in data set [5] (diketide to triketide) were 4.5 ± 0.7 min^−1 and 9.5 ± 0.6 min^−1, respectively.
As usually defined, the kcat is the number of substrate molecules converted per active site and unit of time at saturation. For “M2(4): derivative of M2 containing the C-terminal linker of DEBS module 4”, the kcat in [6] is ~0.0005 s⁻¹. For the same compound, in the data set with M3+TE [7] (mismatched linker pair), the “highest rate constants that could be measured, tetraketide lactone 2” value lay within 0.02 to 0.03 min⁻¹. Also, the “kcat (saturating rate) of tetraketide lactone 2 formation” value with (5)M3+TE [8] (fixed donor, variable (5)M3+TE) was 0.0123 ± 0.001 s⁻¹ and 0.0123 s⁻¹. In addition, the equilibrium dissociation constant (Kd) in the data set with (5)M3+TE [8] (from saturation curve) was 2.1 ± 0.4 µM.
In the case of “M2: module 2 of DEBS, thioesterase replaced with the natural C-terminal linker for module 2”, in data set [6], the catalytic constant (kcat) is ~0.00033 s⁻¹. The Kd with M3+TE [7] (estimated from saturation curve) is 1.1 ± 0.1 µM. The “kcat (maximum / saturating rate constant) of tetraketide lactone 2 formation” value with M3+TE [7] (fixed donor, variable M3+TE, 7 mM NDK) is 0.0045 ± 0.00017 s⁻¹ and 0.0045 s⁻¹. In addition, in the data set with (5)M3+TE [8] (mismatched linker pair), the “highest rate constants that could be measured, tetraketide lactone 2” value lay in the range of 0.02 to 0.03 min⁻¹.
As to “M5 + TE: single module 5 of DEBS fused to the thioesterase (TE) domain”, in [4], the “Triketide Formed” value is given as “Yes”. For the same compound, the “Triketide Formed” value in [4] (listed as (M5+TE)) was “expected triketides were formed”. For the same compound, in data set [5] (diketide to triketide), the Michaelis-Menten constant (Km) amounted to 4.7 ± 0.4 mM and the “kcat × 100” value is on record as 7.5 ± 0.7 min^−1.

The record behind these values is US7001748B2, “Methods of making polyketides using hybrid polyketide synthases” (The Board of Trustees of the Leland Stanford Junior …, priority 1999, dated 2006).
